Assay [1] addresses T1, recombinant human ANGPTL3 (rhANGPTL3) (SEQ ID NO:1) (human) (UniProt Q9Y5C1).
T1 sequence: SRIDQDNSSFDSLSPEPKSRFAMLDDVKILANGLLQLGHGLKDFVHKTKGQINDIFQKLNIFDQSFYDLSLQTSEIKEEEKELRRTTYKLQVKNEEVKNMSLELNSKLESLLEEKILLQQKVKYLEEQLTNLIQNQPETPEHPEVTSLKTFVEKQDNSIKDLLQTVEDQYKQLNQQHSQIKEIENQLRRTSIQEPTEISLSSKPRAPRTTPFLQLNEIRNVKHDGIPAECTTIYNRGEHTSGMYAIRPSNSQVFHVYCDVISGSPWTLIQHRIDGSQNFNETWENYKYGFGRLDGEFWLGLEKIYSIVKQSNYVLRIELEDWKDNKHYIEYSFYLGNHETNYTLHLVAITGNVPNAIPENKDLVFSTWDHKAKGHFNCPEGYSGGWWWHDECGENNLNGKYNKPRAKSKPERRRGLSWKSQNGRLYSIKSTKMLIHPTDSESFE
Put plainly: cell-based or functional assay.

Assay [2] has as its target T1, recombinant human ANGPTL3 (rhANGPTL3) (SEQ ID NO:1) (human). Put plainly: SE-UPLC of antibody mixed with rhANGPTL3 (1:3 molar ratio), run buffer pH 6.0.
The target is the same in assay [3]. Put plainly: SE-UPLC of antibody mixed with rhANGPTL3 (1:3 molar ratio), run buffer pH 7.4.
The target is the same in assay [4]. Kind of assay: SE-UPLC of antibody mixed with rhANGPTL3 (1:3 molar ratio); change of mean retention time from pH 7.4 to 6.0.

Experimental findings from patent US20260035450A1 are described below.

Chain of evinacumab sequence identical analogue (SIA) (antibody) (VH): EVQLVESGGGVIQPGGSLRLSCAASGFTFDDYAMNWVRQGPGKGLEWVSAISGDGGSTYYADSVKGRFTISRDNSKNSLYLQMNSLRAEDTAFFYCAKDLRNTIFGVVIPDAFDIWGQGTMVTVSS
Chain of evinacumab sequence identical analogue (SIA) (antibody) (VL): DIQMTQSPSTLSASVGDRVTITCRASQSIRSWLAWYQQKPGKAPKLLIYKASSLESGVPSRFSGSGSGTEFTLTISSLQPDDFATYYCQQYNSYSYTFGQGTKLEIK

On to “evinacumab sequence identical analogue (SIA) (antibody)”, for which the Average relative IC50 (inhibition of rhANGPTL3-mediated LPL inhibition) (relative to evinacumab SIA) in assay [1] worked out at 1. In assay [2], the MRT (mean retention time of immune complex), pH6.0 was determined as 3.82 min and the RT (retention time of immune complex), pH6.0 was 3.83 min. In assay [3], the MRT (mean retention time of immune complex), pH7.4 is 3.72 min and the RT (retention time of immune complex), pH7.4 turned out to be 3.72 min. In addition, the MRT shift, pH7.4 -> pH6.0 in assay [4] was 0.1 min.
